Reference: the RNAGym collection of RNA variant scans (doi:10.1073/pnas.2313332121)
Fewer inactive variants are shown than the library holds.

B1: TPR 5TU (parent)
chain: GGAUCUUCUCGAUCUAACAAAAAAGACAAAUCUGCCACAAAGCUUGAGAGCAUCUUCGGAUGCAGAGGCGGCAGCCUUCGGUGGCGCGAUAGCGCCAACGUUCUCAACUAUGACACGCAAAACGCGUGCUCCGUUGAAUGGAGUUUAUCAUG

Variants of: B1
Test: polymerase ribozyme fitness, log enrichment relative to wild type (log ratio); higher = more active; in vitro selection for triplet polymerase activity
Procedure, shortened: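 Each subunit of a heterodimeric triplet polymerase ribozyme was represented by a PCR-built, transcribed mutant library that underwent triplicate single-round in vitro selection with frozen incubation at −7 °C. Extended constructs were recovered by gel excision, streptavidin-bead capture and RT-PCR, and Illumina sequencing of input and output libraries kept genotypes with ≥10 input reads and ≥1 read per output. Fitness is the logarithm of genotype enrichment relative to wild-type enrichment, from inverse-variance-weighted replicate averages, with a logarithm base of 2.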

Variant	polymerase ribozyme fitness (log ratio)
U44A G50A C93G	≤ -4.2
A47C C85U G117U	0.38
U44A U53G	≤ -4.2
G42C G46C G70C C95G U101G C129A C132G	≤ -4.2
G46U G68C U78A C93G C99U G100C C118A A119U U144G G152A	≤ -4.2
G42C U55A	-4.09
G46A G92A	-2.92
C43G A97U C123U C125A U148G	≤ -4.2
U45G A49C G62C G94C C118G	≤ -4.2
U45A C54U	-2.52
U45A C54A	≤ -4.2
C43U C54A C79U A91U A142U G143A	≤ -4.2
U45A U56C C57A C63G C87G G88C	≤ -4.2
U44C U56A	-3
U44A G70C G117A G136U	≤ -4.2
C43U G71A U82A C95A A97U C103A G126A C149U	≤ -4.2
A47C C96U	0.15
C43U C51U U53G A73G C96G G126U	≤ -4.2
G42A U55A C85U A97U G140C	≤ -4.2
U45G C93U G141C	≤ -4.2
G46A A49G G50A A52U C96U C123G U139A G143C	≤ -4.2
U45A G84A U148A	≤ -4.2
G42C U61A A64G A107G U130C	≤ -4.2
C43G	-4.17

Variant	polymerase ribozyme fitness (log ratio)
C43A	-4
C43U	-4.01
U44A G65C A89U	≤ -4.2
G42A G81U A91C G92U C95G A107C C108A C114G G141A	≤ -4.2
G46C U55A A89U C93G A106C U127C G140C	≤ -4.2
U44A C95U A97U	≤ -4.2
G42C U53G G71A G92C C105G A137G	≤ -4.2
A47C G83A A122C	-1.08
G46A G59A	0.222
C43G U53A G81U U82C	≤ -4.2
G46C C54A C96G C103G G141U	≤ -4.2
U44A C57G G70C C96U A107U C149G A150C	≤ -4.2
A47C G48U C75U U77A G83C C96A C99A	≤ -4.2
G42U C116A U135G	≤ -4.2
G46C G80C A97C U144G	≤ -4.2
G46U C63G G94U U101G A137G A147C	≤ -4.2
U44G G48A G83C	≤ -4.2
G42C C43U A60G C87A C108G A121G A142C	≤ -4.2
U45A C87U	-3.28
G46A C54A C57G G74U C87A A121G	≤ -4.2
U44A C93U A120G	-4.11
A47C C108U U146C	-3.2
A47C G83A	-2.37
U45C C108G	≤ -4.2

Variant	polymerase ribozyme fitness (log ratio)
A47C A60C C72G U77G C87G G88U A110U A119G A147C	≤ -4.2
G46A G94C	-1.05
U44A A47C U56A G84C C87G	≤ -4.2
G46A G86A C87G U104G C116U C149U	≤ -4.2
U45A G136C	≤ -4.2
C43A C63U C69A G94A C123A U134A G141C	≤ -4.2
U45G U56A G88A C93G A119G G143U	≤ -4.2
A47C C85A	-2.92
G42C G143C	≤ -4.2
G46U U55G C76A A89G A106U	≤ -4.2
U45A A49G C57A U61G G68U C114U A150U	≤ -4.2
U45A A73U C79A C93U A121G	≤ -4.2
A47C G83A G92U C108U	≤ -4.2
G46A G71C U78A	≤ -4.2
G42U G68C G94U	≤ -4.2
U45C G50U C57G C87G A137C C149A	≤ -4.2
G46A	-0.076
G46U	-0.0995
G46C	-0.9
A47C G58U C99A	-2.46
G46C C75U C93G U144A	≤ -4.2
U44A U56A A64C A91U C105U C108G A110C U135G	≤ -4.2
U45G G83C G117A	-1.29
A47C C96U C103A C114G C123U	≤ -4.2

Variant	polymerase ribozyme fitness (log ratio)
C43A G92C	≤ -4.2
G42U C43G G86U G94U U144A	≤ -4.2
A47C C76A C87G C96U A115G	≤ -4.2
U44A G94A C116U G152U	-4.16
G42C U56A C79A	≤ -4.2
G42U G58A G70U A73G G84U C85U U144G A150U	≤ -4.2
U44A G86C A120C U146C	≤ -4.2
U45A C118A	-3.79
U45A A91G	-4.12
U45A A91U	-3.74
G46A C75U C85A A106G	≤ -4.2
C43A A52G G83A G124U G143A	≤ -4.2
G46A G67A C87A A97C G143C	≤ -4.2
G46C U55A	-0.931
U45A G83A A121U G141C U148G	≤ -4.2
C43U A52C G83U A91U	≤ -4.2
G46A U53G C57U G86A A115C	≤ -4.2
A47C C51U A52C C75A C96U C103A A110C	≤ -4.2
U45A A52U C85A U139G	≤ -4.2
G46C U55G U144A	-1.97
A47C C72U G94U U102C	≤ -4.2
G42C A49C A52C C75U C85U A91U	≤ -4.2
U44G U45G A97C	≤ -4.2
C43G C54A C93U A107G	≤ -4.2

Variant	polymerase ribozyme fitness (log ratio)
U44A C103G A115U	≤ -4.2
U44A C57A C93A G133C	≤ -4.2
G46U U53A U90C	≤ -4.2
U45G U61A	-2.35
G46U G50C A73G C76G A113U U139C	≤ -4.2
G42U A52C A66G C76A U90G C95A A106C C108G	≤ -4.2
C43U U53A	≤ -4.2
C43U C69U A91C A137C	≤ -4.2
G42U G59A	≤ -4.2
A47C C72U G92A	-3.53
C43U C51A G86U G126A A137C	≤ -4.2
U44A A47C C57U G128C	≤ -4.2
G46C C85U	-1.16
C43G C125A U146A U148A	≤ -4.2
U45A	-2.1
U45C	0.188
U45G	-0.42
U44A A66U C85A	≤ -4.2
C43U U45G C131A G136U	≤ -4.2
G42U G62U C63A C69U C99A C103G C108A	≤ -4.2
A47C G58C A97G C99G C129A G133U	≤ -4.2
G46C A60U	-1.74
A47C G48U G50A U55A G94A	≤ -4.2
G42A U82G A91G G133A U134C G140C	≤ -4.2

Variant	polymerase ribozyme fitness (log ratio)
C43A U44G U45A	≤ -4.2
C43U A49G G84C G140U U146G	≤ -4.2
A47C A91C C105G A120G G143U	≤ -4.2
U45G G94U G100C A150C	≤ -4.2
G42U C54G C57U G65A G92C A110C	≤ -4.2
G46A G70U C85G U130A	≤ -4.2
G46A U53G U56A A91C U104G G128U U146C	≤ -4.2
G46A C54G	-1.88
G42U A98G U139C	≤ -4.2
U44G G65A G68A	≤ -4.2
G46A A49C G59C U61A G86U	≤ -4.2
U45G G59A G84A A89G C118U	-3.18
C43U G50A G80C C95A A121U A150C	≤ -4.2
C43U G58A G86A U90G U144A	≤ -4.2
A47C C85A C93U	≤ -4.2
U45A C76A C85A	≤ -4.2
U45C A49C G70C G83C A137C U144C C149U	≤ -4.2
G46A U144G	0.469
U45G G50C C57A G59A C75U G94C A106U A107U	≤ -4.2
C43U C87U	-3.73
G42A U61A G86A	≤ -4.2
A47C C99U A122U G141A	-3.39
G42U C76A G81A G124C	≤ -4.2
U45A G81C C96G	-3.93

Variant	polymerase ribozyme fitness (log ratio)
G42C G86U A150U	≤ -4.2
A47C G80A C95U U104G A120G	-0.454
C43U C85G G88A C93G A97U C125A C132G G140C	≤ -4.2
G46U U144C	-0.573
U45A A66U C76U C85G C129A	≤ -4.2
G46U C96U A142G	-1.19
U45A A60C C79U C99U U101G G136U	≤ -4.2
G42A G71U G126A A138C	≤ -4.2
C43A U56A G67A G88A G112C C114U	≤ -4.2
C43A U55A G92A	≤ -4.2
A47C A52G U53A G86A G94C	≤ -4.2
A47C G81C C87G C96U	≤ -4.2
U45A G74A C105U	≤ -4.2
G42C A52G U55A U56A G68A	≤ -4.2
G46U G83C G92U	-2.34
U45A A49U C75A G83C C87G G117U U127A U139A G152U	≤ -4.2
G46C C118G	-1.24
U44G	-3.7
U44A	-3.72
U44C	-1.11
G42C C95U	-4.14
C43G A47C U104G	≤ -4.2
U44A G50A G65C C76G U90G	≤ -4.2
